Results published in patent publication US20260265321A1, “PEPTIDE AND POLYPEPTIDE INHIBITING THE NF-KB SIGNALING PATHWAY” (Centre National de la Recherche Scientifique, priority 2023, published 2026).

T1: 6×His-IKKβ(1-669) EE (Homo sapiens, UniProt O14920, S177E/S181E)
T1 construct: a nearly full-length (residues 1-669) and constitutively active (S177E/S181E) mutant construct of human IKKβ; made in house; host or cells: Sf21 insect cells (baculovirus)
T1 sequence (O14920 1-669 S177E/S181E): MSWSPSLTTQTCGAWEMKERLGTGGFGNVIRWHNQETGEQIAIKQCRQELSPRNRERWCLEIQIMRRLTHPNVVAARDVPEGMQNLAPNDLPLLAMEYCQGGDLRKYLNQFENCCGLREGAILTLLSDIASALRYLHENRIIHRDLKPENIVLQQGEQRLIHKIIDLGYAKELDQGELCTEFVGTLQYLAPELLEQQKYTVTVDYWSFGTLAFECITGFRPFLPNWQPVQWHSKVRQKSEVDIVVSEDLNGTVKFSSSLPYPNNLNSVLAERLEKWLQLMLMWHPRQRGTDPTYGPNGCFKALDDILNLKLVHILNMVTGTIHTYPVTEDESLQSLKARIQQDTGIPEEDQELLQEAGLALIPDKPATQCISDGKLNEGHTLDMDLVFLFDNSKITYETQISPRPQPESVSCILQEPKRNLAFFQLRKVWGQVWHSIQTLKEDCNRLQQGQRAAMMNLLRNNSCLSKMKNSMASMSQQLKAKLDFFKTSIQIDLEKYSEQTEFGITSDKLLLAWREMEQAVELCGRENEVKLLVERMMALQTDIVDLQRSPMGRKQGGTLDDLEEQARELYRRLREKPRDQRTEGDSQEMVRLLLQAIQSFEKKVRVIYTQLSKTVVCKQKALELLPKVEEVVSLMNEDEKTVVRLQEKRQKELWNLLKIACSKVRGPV

T2: G1-IKKβ, full-length wt IKKβ fused to the Gluc1 fragment (human, UniProt O14920 1-756)
T2 construct: Expressed in HEK293T cells for GPCA; full-length; also called Gluc1-IKKβ; not shown: Gluc1 fragment of Gaussia princeps luciferase and flexible 20 amino acid linker, N-terminal
T2 sequence (looked up): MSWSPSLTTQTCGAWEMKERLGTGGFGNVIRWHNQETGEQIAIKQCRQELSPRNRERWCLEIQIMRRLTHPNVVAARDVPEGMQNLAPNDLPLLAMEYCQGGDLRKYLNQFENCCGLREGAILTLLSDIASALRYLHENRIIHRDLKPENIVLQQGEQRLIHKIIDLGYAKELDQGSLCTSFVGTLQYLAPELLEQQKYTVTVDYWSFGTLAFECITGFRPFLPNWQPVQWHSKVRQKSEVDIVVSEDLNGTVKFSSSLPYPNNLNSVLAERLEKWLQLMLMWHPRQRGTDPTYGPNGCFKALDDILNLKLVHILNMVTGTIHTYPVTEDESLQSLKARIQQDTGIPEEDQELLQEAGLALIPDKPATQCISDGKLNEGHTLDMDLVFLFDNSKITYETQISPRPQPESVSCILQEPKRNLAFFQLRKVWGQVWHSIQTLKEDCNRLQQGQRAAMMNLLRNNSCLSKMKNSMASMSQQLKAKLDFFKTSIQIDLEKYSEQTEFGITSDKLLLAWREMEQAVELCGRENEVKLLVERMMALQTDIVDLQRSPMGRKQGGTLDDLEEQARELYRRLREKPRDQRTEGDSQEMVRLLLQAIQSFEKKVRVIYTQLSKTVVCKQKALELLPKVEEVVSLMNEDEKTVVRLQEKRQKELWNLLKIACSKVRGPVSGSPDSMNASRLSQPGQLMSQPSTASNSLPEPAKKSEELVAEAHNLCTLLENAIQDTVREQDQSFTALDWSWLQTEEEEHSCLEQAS

T3: G1-IKKα, full-length wt IKKα fused to the Gluc1 fragment (human, UniProt O15111 1-745)
T3 construct: Expressed in HEK293T cells for GPCA; full-length; also called Gluc1-IKKα; not shown: Gluc1 fragment of Gaussia princeps luciferase and flexible 20 amino acid linker, N-terminal
T3 sequence (looked up): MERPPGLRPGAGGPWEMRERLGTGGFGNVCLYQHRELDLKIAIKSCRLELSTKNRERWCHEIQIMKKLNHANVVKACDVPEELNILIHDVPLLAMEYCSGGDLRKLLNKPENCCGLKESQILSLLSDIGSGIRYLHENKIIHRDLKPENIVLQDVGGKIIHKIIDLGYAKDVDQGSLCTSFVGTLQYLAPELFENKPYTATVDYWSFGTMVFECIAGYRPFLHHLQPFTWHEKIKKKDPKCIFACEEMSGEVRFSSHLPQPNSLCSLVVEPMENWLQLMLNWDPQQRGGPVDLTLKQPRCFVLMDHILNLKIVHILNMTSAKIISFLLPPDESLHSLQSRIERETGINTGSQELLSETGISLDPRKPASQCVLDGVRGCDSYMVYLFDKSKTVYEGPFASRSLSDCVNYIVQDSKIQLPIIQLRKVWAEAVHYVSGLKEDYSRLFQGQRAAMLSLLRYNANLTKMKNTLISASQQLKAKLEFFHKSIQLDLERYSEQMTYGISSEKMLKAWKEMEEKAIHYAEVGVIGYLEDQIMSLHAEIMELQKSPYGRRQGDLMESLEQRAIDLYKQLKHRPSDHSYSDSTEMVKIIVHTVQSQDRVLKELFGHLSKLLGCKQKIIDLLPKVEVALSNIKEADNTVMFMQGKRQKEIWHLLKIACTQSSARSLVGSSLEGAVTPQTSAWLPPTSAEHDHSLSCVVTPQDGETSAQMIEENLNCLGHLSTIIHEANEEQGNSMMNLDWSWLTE

B1: G2-IκBα FL (other, UniProt P25963 1-317, looked up)
chain: MFQAAERPQEWAMEGPRDGLKKERLLDDRHDSGLDSMKDEEYEQMVKELQEIRLEPQEVPRGSEPWKQQLTEDGDSFLHLAIIHEEKALTMEVIRQVKGDLAFLNFQNNLQQTPLHLAVITNQPEIAEALLGAGCDPELRDFRGNTPLHLACEQGCLASVGVLTQSCTTPHLHSILKATNYNGHTCLHLASIHGYLGIVELLVSLGADVNAQEPCNGRTALHLAVDLQNPDLVSLLLKCGADVNRVTYQGYSPYQLTWGRPSTRIQQQLGQLTLENLQMLPESEDEESYDTESEFTEFTEDELPYDDCVFGGQRLTL
notes: range 1-317; Expressed in HEK293T cells for GPCA; also called full-length IκBα; not shown: Gluc2 fragment of Gaussia princeps luciferase and flexible 20 amino acid linker, N-terminal
B2: 73-317 YD/SS (other)
chain: DGDSFLHLAIIHEEKALTMEVIRQVKGDLAFLNFQNNLQQTPLHLAVITNQPEIAEALLGAGCDPELRDFRGNTPLHLACEQGCLASVGVLTQSCTTPHLHSILKATNYNGHTCLHLASIHGYLGIVELLVSLGADVNAQEPCNGRTALHLAVDLQNPDLVSLLLKCGADVNRVTYQGYSPYQLTWGRPSTRIQQQLGQLTLENLQMLPESEDEESYDTESEFTEFTEDELPSDSCVFGGQRLTL
notes: also called G2-IκBα 73-317 YD/SS; G2-IκBα(73-317) Y305S/D307S; not shown: N-terminal Gluc2 fragment of Gaussia princeps luciferase and the flexible 20 amino acid linker (pSPICA-N2)
B3: 39-852 (other)
chain: YLVIVEQPKQRGFRFRYGCEGPSHGGLPGASSEKGRKTYPTVKICNYEGPAKIEVDLVTHSDPPRAHAHSLVGKQCSELGICAVSVGPKDMTAQFNNLGVLHVTKKNMMGTMIQKLQRQRLRSRPQGLTEAEQRELEQEAKELKKVMDLSIVRLRFSAFLRASDGSFSLPLKPVISQPIHDSKSPGASNLKISRMDKTAGSVRGGDEVYLLCDKVQKDDIEVRFYEDDENGWQAFGDFSPTDVHKQYAIVFRTPPYHKMKIERPVTVFLQLKRKRGGDVSDSKQFTYYPLVEDKEEVQRKRRKALPTFSQPFGGGSHMGGGSGGAAGGYGGAGGGGSLGFFPSSLAYSPYQSGAGPMGCYPGGGGGAQMAATVPSRDSGEEAAEPSAPSRTPQCEPQAPEMLQRAREYNARLFGLAQRSARALLDYGVTADARALLAGQRHLLTAQDENGDTPLHLAIIHGQTSVIEQIVYVIHHAQDLGVVNLTNHLHQTPLHLAVITGQTSVVSFLLRVGADPALLDRHGDSAMHLALRAGAGAPELLRALLQSGAPAVPQLLHMPDFEGLYPVHLAVRARSPECLDLLVDSGAEVEATERQGGRTALHLATEMEELGLVTHLVTKLRANVNARTFAGNTPLHLAAGLGYPTLTRLLLKAGADIHAENEEPLCPLPSPPTSDSDSDSEGPEKDTRSSFRGHTPLDLTCSTKVKTLLLNAAQNTMEPPLTPPSPAGPGLSLGDTALQNLEQLLDGPEAQGSWAELAERLGLRSLVDTYRQTTSPSGSLLRSYELAGGDLAGLLEALSDMGLEEGVRLLRGPET
notes: also called G2-p100 39-852; not shown: N-terminal Gluc2 fragment of Gaussia princeps luciferase and the flexible 20 amino acid linker (pSPICA-N2)
B4: 73-288 (other)
chain: DGDSFLHLAIIHEEKALTMEVIRQVKGDLAFLNFQNNLQQTPLHLAVITNQPEIAEALLGAGCDPELRDFRGNTPLHLACEQGCLASVGVLTQSCTTPHLHSILKATNYNGHTCLHLASIHGYLGIVELLVSLGADVNAQEPCNGRTALHLAVDLQNPDLVSLLLKCGADVNRVTYQGYSPYQLTWGRPSTRIQQQLGQLTLENLQMLPESEDEES
notes: also called G2-IκBα 73-288; IκBα(73-288); not shown: N-terminal Gluc2 fragment of Gaussia princeps luciferase and the flexible 20 amino acid linker (pSPICA-N2)

Columns and labels:
6×His-IKKβ(1-669) EE = biological target: T1, 6×His-IKKβ(1-669) EE; assay: MBP-pulldown of recombinant IKKβ by MBP-peptide fusions; type: binding; conditions: 0.3 μM IKKβ, Western blot
Experimental: Experiments were performed in PD buffer (20 mM Tris pH 8.0, 150 mM NaCl, 2 mM DTT). For each experiment, 10 μl of amylose resin (dry bead volume) coupled to MBP-fusion constructs were incubated with […] of purified 6×His-IKKα(10-667) EE and 6×His-IKKβ (1-669) EE constructs adjusted at a concentration of 0.3 μM for 2 hours at 4° C. After two quick washing steps with PD buffer, complexes were eluted by incubation with 20 μl of the same buffer supplemented with 20 mM maltose for 15 minutes at 4° C. After mild centrifugation, supernatants were recovered and migrated onto two separate 10% SDS-PAGE gels. One gel was used for Western blot analysis to detect His-IKKα or His-IKKβ using and anti-6×His antibody (Sigma, #SAB4301134), the other for Coomassie staining to detect MBP-fusion proteins. Quantification of band intensity was done using the Image J software.

[1] = biological target: T2, G1-IKKβ, full-length wt IKKβ fused to …; assay: GPCA (Gaussia princeps protein complementation assay) in HEK293T cells, NLR, mean ± SD of triplicates
Experimental: (§1) HEK293T cells were transfected using the reverse transfection method. Transfection mixes containing 100 ng of pSPICA-N2 and 100 ng of pSPICA-N1 plasmids expressing test proteins plus JetPEI® (Polyplus transfection) were dispensed in white 96-well plates. HEK293T cells were then seeded on the DNA mixes at a concentration of 4.2×10^4 cells per well. 48 hours after transfection, cells were washed with 50 μl of PBS and lysed with 40 μl of Renilla lysis buffer (Promega, E2820) for 30 minutes with agitation. Gaussia princeps luciferase enzymatic activity was measured using a Berthold Centro LB960 luminometer by injecting 50 μl per well of luciferase substrate reagent (Promega, E2820) and counting luminescence for 10 seconds. Results are expressed as a fold change normalized over the sum of controls, specified herein as normalized luminescence ratio (NLR) 29. For a given protein pair A/B, NLR=(Gluc1-A+Gluc2-B)/[(Gluc1-A+Gluc2)+(Gluc1+Gluc2-B)]. All interactions were measured in three independent experiments, with each experiment being carried out in triplicate. The expression levels of Gluc1- and Gluc2-fused proteins were checked by Western blotting. 24 hours post-transfection, HEK293T cells were collected, lysed by incubation on ice and centrifuged. Aliquots of cleared supernatants were loaded onto an 10% SDS-PAGE gel.

[2] = biological target: T3, G1-IKKα, full-length wt IKKα fused to …; assay: as above
Experimental: as §1

[3] = biological target: T3, G1-IKKα, full-length wt IKKα fused to …; assay: GPCA (Gaussia princeps protein complementation assay), G1-IKKα FL with G2-p100 constructs, NLR
Experimental: as §1

Molecule	interaction with IKKβ by pulldown (6×His-IKKβ(1-669) EE)	binding result [1]	binding result [2]	binding result [3]
EFTEDELPYDDFVFGGQRLTL [C308F IκBα pep, IκBα pep with C308F substitution]	clearly enhance binding to IKKβ	–	–	–
DELPYDDCVFGGQRLTL [IκBα pep(s), 17 amino acid peptide from the IκBα C-terminus (residues 301-317)]	necessary and sufficient to interact with IKKβ	–	–	–
B1	–	binds	binds	–
B2	–	binds	binds	–
B3	–	–	–	binds
B4	–	binds	binds	–
